Positions count from the first letter of the chain named. Names and notes keep the numbering of the source.

One assay deals with T1, Human latent myostatin (human, UniProt O14793 25-266; O14793 267-375).
T1 construct: Biotinylated in the ELISAs; also called human myostatin latent form
T1 sequence 1: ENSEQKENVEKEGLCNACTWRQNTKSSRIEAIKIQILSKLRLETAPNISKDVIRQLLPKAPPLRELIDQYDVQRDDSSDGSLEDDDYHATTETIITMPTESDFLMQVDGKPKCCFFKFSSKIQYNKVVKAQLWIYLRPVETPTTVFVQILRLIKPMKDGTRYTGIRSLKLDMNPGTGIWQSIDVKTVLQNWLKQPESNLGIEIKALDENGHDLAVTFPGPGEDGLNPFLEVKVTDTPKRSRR
T1 sequence 2: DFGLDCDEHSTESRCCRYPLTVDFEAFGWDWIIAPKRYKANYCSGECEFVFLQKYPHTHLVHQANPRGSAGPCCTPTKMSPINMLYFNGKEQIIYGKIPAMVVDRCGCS
Description: SPR (BIACORE T200), 37 C, pH7.4, avidity condition (capture 185 RU), 1:1 fit; pH 7.4. As to the method:
The kinetic parameters of anti-latent myostatin antibodies against human, cynomolgus monkey (cyno), and mouse latent myostatin were assessed at 37° C. at pH7.4 using a BIACORE® T200 instrument (GE Healthcare). ProA/G (Pierce) was immobilized onto all flow cells of a CM4 chip using amine coupling kit (GE Healthcare). Anti-latent myostatin antibody and analytes were prepared in ACES pH7.4 (20 mM ACES, 150 mM NaCl, 1.2 mM CaCl₂), 0.05% TWEEN® 20, 0.005% NaN₃). […] Then human, cyno, or mouse latent myostatin was injected at 3.125 to 50 nM prepared by two-fold serial dilution, followed by dissociation. The sensor surface was regenerated with 25 mM NaOH. Kinetic parameters were determined by processing and fitting the data to a 1:1 binding model using BIACORE® T200 Evaluation software, version 2.0 (GE Healthcare).
All experimental settings were the same as in Example 7, except that measurements were also performed in ACES pH5.8 buffer in addition to ACES pH7.4 condition. Some antibodies were only measured against human latent myostatin. Antibody capture level was aimed at 185 RU and 18.5 RU, for avidity and affinity assay, respectively. Kinetic parameters were determined using 1:1 Binding fitting using BIACORE® T200 Evaluation software, version 2.0 (GE Healthcare).
(In SPR one partner is held on a chip, and binding of the other changes the refractive index at the surface.)

Assay [1] has as its target T2, cynomolgus monkey FcγRIIIaS extracellular domain, C-terminal His-tag (cynomolgus monkey, UniProt Q8SPW2 21-206 at identity 1.00)).
T2 construct: also called cyno FcγRIIIaS; FcgRIIIaS
T2 chain: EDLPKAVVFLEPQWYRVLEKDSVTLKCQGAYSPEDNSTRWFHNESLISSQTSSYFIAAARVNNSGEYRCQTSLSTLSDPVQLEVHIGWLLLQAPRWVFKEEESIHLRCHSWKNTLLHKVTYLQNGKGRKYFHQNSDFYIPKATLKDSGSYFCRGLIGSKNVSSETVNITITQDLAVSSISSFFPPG
Description: SPR; FcgR bound per captured antibody, normalized to SG1. As for the experimental part:
(§1) The kinetic analysis of interactions between these antibodies and FcγR was carried out using BIACORE® T200 or BIACORE® 4000 (GE Healthcare). HBS-EP+ (GE Healthcare) was used as the running buffer, and the measurement temperature was set to 25° C. A chip produced by immobilizing Protein A. Protein A/G or mouse anti-human IgG kappa light chain (BD Biosciences) onto a Series S Sensor Chip CM4 or CM5 (GE Healthcare) by the amine-coupling method was used. […] After the measurement, the antibody captured on the chip was washed off by allowing reaction with 10 mM glycine-HCl, pH1.5 and 25 mM NaOH so that the chip was regenerated and used repeatedly. The sensorgrams obtained as measurement results were analyzed by the 1:1 Langmuir binding model using the BIACORE® Evaluation Software to calculate the binding rate constant ka (L/mol/s) and dissociation rate constant kd (l/s), and the dissociation constant KD (mol/L) was calculated from these values. […] Regarding such interactions, KD values were calculated using the following 1:1 binding model described in BIACORE® T100 Software Handbook BR1006-48 Edition AE.
(§2) The value of the amount of FcγR binding was obtained by dividing the amount of FcγR bound by the amount of each antibody captured.

Assay [2] has as its target T3, cynomolgus monkey FcγRIIa3 extracellular domain, C-terminal His-tag (cynomolgus monkey).
T3 construct: also called cyno FcγRIIa3; FcgRIIa3
T3 chain: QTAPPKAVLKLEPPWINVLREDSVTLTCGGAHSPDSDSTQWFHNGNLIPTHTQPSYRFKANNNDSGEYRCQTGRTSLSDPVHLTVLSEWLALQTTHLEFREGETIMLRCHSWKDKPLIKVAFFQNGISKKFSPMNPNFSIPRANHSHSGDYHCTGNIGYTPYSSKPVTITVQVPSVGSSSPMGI
Described as above. As to the method: as §1, §2

For assay [3], the target named is T4, cynomolgus monkey FcγRIIa2 extracellular domain, C-terminal His-tag (cynomolgus monkey).
T4 construct: also called cyno FcγRIIa2; FcgRIIa2
T4 chain: T3 chain with I127K, K130N, P133H, R142Q
The assay is described as above. As to the method:
as §1, §2

Assay [4] addresses T5, cynomolgus monkey FcγRIIa1 extracellular domain, C-terminal His-tag (cynomolgus monkey).
T5 construct: also called cyno FcγRIIa1; FcgRIIa1
T5 chain: T3 chain with T95P, A121T, S128A, P133H, N135D
Described as above. As for the experimental part: as §1, §2

Assay [5] concerns the target T6, cynomolgus monkey FcγRIIb extracellular domain, C-terminal His-tag (cynomolgus monkey).
T6 construct: also called cyno FcγRIIb; cynoFcγRIIb
T6 chain: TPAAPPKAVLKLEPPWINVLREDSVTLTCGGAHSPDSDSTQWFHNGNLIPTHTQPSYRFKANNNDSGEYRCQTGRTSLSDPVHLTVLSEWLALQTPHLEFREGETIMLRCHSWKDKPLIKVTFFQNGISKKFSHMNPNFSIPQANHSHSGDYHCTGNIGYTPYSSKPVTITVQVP
The assay is described as above. As to the method:
as §1, §2

B1: MS_M103205H707-SG1/M103202L802-SK1 (antibody, human IgG1, kappa, V domains shown)
VH: QVTLKESGPVLVKPTETLTLTCTVSGIDLSHYDISWVRQAPGKGLEWVGIISYAGSTYYASWAKGRLTISKDTSKNQVVLTMTNMDPVDTATYYCARGVPAYSHGGDLWGQGTLVTVSS
VL: DIVMTQSPATLSLSPGERATLSCTSSQSVYHDNWLSWFQQKPGQPPKLLIYWASTLAYGVPSRFSGSGSGTDFTLTISSLQPEDAATYYCAGGYGGGLYAFGQGTKVEIKR
notes: also called MS1032LO04-SG1; MSLO-04
On to B1, for which, in the assay with Human latent myostatin, the Kd came to 163 pM; the koff (usually the first-order rate constant of dissociation) stood at 0.000217 s⁻¹; the kon (in general, the second-order rate constant of association) was determined as 1.33e+06 M⁻¹ s⁻¹.

B2: M103205H795-MY001/M103202L889-SK1 (antibody, human IgG1, kappa)
heavy: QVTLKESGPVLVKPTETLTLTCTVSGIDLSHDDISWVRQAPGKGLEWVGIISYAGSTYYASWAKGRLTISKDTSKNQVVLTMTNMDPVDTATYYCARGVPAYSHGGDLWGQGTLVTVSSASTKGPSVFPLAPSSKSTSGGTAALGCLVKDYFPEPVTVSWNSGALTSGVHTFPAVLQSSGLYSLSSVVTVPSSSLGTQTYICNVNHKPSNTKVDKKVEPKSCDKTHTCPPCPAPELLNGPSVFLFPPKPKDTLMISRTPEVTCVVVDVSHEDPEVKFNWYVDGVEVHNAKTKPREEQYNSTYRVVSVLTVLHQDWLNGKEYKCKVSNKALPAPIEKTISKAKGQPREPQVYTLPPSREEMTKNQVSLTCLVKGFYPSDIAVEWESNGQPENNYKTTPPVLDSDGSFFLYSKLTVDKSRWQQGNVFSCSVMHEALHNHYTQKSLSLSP
light: DIVMTQSPATLSLSPGERATLSCTSSQSVYHANWLSWFQQKPGQPPKLLIYWASTLAYGVPSRFSGSGSGTDFTLTISSLQPEDAATYYCAGGYGGGRYAFGQGTKVEIKRTVAAPSVFIFPPSDEQLKSGTASVVCLLNNFYPREAKVQWKVDNALQSGNSQESVTEQDSKDSTYSLSSTLTLSKADYEKHKVYACEVTHQGLSSPVTKSFNRGEC
notes: also called G236N
Consider B2, for which the “amount of FcgR binding (SG1 = 100)” value in assay [1] came out at 15 SG1 = 100; in assay [2] it was 62 SG1 = 100; in assay [3], 86 SG1 = 100; in assay [4], 83 SG1 = 100; in assay [5], 85 SG1 = 100.

B3: M103205H795-SG172/M103202L889-SK1 (antibody, human IgG1, kappa)
heavy: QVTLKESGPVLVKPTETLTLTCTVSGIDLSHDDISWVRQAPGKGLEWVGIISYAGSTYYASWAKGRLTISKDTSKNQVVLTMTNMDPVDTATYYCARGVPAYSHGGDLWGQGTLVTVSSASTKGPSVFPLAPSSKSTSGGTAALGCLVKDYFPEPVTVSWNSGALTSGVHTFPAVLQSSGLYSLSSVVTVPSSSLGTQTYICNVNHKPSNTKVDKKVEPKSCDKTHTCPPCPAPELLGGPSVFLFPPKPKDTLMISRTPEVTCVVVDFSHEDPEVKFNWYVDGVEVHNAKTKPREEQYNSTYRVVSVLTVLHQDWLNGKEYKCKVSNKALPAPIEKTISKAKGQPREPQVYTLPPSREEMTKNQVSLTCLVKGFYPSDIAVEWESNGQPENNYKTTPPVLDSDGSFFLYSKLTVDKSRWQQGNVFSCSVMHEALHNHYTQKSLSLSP
light: B2 light
notes: also called V266F
As for B3, the “amount of FcgR binding (SG1 = 100)” value in assay [1] was determined as 31 SG1 = 100; in assay [2], 27 SG1 = 100; in assay [3], 17 SG1 = 100; in assay [4], 14 SG1 = 100; in assay [5], 16 SG1 = 100.

B4: M103205H795-SG177/M103202L889-SK1 (antibody, human IgG1, kappa)
heavy: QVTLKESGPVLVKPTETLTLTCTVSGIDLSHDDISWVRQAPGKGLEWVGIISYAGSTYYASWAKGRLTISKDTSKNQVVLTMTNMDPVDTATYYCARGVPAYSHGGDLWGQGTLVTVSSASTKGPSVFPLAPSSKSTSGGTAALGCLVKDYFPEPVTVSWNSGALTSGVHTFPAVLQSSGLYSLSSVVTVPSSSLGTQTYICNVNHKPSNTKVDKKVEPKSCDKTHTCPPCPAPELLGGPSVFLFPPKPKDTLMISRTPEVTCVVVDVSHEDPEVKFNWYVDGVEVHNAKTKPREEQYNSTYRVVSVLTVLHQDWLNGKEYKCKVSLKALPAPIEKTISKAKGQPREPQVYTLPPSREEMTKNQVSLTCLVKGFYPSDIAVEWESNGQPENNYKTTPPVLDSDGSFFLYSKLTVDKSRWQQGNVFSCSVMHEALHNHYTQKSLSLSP
light: B2 light
notes: also called N325L
For B4, the “amount of FcgR binding (SG1 = 100)” value was found to be 21 SG1 = 100 in assay [1]; 25 SG1 = 100 in assay [2]; 15 SG1 = 100 in assay [3]; 15 SG1 = 100 in assay [4]; 18 SG1 = 100 in assay [5].

B5: M103205H795-SG176/M103202L889-SK1 (antibody, human IgG1, kappa)
heavy: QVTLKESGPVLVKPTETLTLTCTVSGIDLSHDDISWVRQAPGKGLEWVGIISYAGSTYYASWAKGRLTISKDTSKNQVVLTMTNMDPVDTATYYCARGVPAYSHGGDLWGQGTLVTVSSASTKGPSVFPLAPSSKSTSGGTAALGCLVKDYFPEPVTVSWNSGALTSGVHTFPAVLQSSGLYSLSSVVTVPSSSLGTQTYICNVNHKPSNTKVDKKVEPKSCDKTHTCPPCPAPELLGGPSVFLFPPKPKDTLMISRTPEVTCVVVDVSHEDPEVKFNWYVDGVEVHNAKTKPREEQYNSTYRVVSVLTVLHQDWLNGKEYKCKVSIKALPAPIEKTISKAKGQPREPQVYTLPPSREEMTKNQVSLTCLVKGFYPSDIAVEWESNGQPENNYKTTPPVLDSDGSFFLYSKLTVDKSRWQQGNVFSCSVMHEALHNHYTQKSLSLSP
light: B2 light
notes: also called N325I
For the molecule B5, the “amount of FcgR binding (SG1 = 100)” value came out at 20 SG1 = 100 in assay [1]; 19 SG1 = 100 in assay [2]; 15 SG1 = 100 in assay [3]; 14 SG1 = 100 in assay [4]; 16 SG1 = 100 in assay [5].

B6: M103205H795-SG170/M103202L889-SK1 (antibody, human IgG1, kappa)
heavy: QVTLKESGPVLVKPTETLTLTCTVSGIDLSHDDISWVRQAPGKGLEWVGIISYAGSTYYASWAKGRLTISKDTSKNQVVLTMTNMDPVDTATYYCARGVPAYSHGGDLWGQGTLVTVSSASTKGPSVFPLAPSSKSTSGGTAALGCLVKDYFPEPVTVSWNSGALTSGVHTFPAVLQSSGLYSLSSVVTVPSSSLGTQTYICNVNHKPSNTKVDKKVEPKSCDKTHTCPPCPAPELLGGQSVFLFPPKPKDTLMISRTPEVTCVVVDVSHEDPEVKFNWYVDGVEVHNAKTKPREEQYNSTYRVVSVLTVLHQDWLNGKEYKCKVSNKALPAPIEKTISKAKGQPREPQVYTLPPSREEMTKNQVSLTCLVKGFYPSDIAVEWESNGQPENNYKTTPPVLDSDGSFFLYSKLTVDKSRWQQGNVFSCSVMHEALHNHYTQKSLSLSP
light: B2 light
notes: also called P238Q
As to B6, the “amount of FcgR binding (SG1 = 100)” value in assay [1] amounted to 12 SG1 = 100; in assay [2], 21 SG1 = 100; in assay [3], 15 SG1 = 100; in assay [4], 16 SG1 = 100; in assay [5] it was 18 SG1 = 100.

B7: M103205H795-SG166/M103202L889-SK1 (antibody, human IgG1, kappa)
heavy: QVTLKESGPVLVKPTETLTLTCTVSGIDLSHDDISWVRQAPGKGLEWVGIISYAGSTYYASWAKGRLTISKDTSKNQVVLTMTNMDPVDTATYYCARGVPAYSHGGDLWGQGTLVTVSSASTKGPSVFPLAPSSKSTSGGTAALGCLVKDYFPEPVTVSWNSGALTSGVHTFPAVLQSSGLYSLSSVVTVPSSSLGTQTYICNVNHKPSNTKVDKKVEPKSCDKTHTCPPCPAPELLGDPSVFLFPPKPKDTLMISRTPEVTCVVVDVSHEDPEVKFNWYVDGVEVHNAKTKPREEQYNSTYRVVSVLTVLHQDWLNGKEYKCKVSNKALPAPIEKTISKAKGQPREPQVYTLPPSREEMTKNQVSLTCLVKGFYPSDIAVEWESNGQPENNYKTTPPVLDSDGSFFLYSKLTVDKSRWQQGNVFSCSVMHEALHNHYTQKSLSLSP
light: B2 light
notes: also called G237D
Consider B7, for which the “amount of FcgR binding (SG1 = 100)” value in assay [1] stood at 5 SG1 = 100; in assay [2] it was 17 SG1 = 100; in assay [3], 10 SG1 = 100; in assay [4], 10 SG1 = 100.

B8: M103205H795-SG173/M103202L889-SK1 (antibody, human IgG1, kappa)
heavy: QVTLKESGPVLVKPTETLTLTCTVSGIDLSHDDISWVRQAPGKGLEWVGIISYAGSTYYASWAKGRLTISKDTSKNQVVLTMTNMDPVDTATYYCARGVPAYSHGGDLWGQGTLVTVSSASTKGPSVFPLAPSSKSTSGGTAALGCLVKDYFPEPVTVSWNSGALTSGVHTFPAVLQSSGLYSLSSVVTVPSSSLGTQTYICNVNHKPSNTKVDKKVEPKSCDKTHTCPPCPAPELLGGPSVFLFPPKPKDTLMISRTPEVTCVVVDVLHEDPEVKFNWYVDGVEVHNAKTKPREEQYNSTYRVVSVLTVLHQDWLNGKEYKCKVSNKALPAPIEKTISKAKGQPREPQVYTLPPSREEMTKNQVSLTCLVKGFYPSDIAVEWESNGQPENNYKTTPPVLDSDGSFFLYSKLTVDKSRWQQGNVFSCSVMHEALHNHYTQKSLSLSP
light: B2 light
notes: also called S267L
For the molecule B8, the “amount of FcgR binding (SG1 = 100)” value in assay [1] was determined as 24 SG1 = 100; in assay [2] it was 21 SG1 = 100; in assay [3], 14 SG1 = 100; in assay [4] it was 13 SG1 = 100; in assay [5] it was 12 SG1 = 100.

B9: M103205H795-SG169/M103202L889-SK1 (antibody, human IgG1, kappa)
heavy: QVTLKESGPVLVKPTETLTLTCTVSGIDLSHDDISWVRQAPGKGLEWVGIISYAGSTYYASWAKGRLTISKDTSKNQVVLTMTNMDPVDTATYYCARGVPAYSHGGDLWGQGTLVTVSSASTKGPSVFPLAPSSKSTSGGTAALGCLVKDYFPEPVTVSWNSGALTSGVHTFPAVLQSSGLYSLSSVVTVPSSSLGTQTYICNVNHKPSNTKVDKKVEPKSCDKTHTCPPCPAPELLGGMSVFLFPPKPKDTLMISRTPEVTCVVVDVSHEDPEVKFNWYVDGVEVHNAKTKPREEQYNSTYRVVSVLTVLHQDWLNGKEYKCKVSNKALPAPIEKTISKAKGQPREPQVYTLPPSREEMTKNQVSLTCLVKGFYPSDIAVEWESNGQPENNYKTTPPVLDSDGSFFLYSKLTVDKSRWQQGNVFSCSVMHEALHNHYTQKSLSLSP
light: B2 light
notes: also called P238M
In the case of B9, the “amount of FcgR binding (SG1 = 100)” value in assay [1] came out at 22 SG1 = 100; in assay [2], 32 SG1 = 100; in assay [3], 16 SG1 = 100; in assay [4], 17 SG1 = 100; in assay [5], 22 SG1 = 100.

B10: M103205H795-SG174/M103202L889-SK1 (antibody, human IgG1, kappa)
heavy: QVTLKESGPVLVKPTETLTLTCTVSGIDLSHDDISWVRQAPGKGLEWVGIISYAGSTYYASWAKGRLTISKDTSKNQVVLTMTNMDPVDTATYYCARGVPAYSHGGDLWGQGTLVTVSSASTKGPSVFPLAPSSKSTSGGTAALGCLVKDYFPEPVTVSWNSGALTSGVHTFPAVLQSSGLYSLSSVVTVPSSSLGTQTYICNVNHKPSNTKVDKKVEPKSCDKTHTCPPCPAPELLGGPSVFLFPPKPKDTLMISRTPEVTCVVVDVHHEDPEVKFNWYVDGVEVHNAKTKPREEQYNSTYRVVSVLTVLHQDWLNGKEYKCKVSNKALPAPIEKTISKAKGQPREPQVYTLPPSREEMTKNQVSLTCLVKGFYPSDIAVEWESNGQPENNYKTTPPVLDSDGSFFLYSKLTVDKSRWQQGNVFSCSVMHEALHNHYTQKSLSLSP
light: B2 light
notes: also called S267H
With B10, the “amount of FcgR binding (SG1 = 100)” value in assay [1] worked out at 15 SG1 = 100; in assay [2], 20 SG1 = 100; in assay [3], 16 SG1 = 100; in assay [4], 13 SG1 = 100; in assay [5], 11 SG1 = 100.

B11: M103205H795-SG167/M103202L889-SK1 (antibody, human IgG1, kappa)
heavy: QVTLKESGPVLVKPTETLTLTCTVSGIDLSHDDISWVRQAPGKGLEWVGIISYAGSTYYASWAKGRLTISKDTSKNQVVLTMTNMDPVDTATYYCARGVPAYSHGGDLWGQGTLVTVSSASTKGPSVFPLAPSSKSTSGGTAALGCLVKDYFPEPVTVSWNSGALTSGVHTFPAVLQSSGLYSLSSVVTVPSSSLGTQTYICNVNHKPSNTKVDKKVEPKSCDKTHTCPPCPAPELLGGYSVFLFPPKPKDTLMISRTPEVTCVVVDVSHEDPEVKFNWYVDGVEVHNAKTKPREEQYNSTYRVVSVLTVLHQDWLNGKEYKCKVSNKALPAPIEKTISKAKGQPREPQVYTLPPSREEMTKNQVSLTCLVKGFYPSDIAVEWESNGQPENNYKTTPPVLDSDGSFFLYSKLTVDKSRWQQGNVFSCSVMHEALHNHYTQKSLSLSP
light: B2 light
notes: also called P238Y
For the molecule B11, the “amount of FcgR binding (SG1 = 100)” value in assay [1] is 14 SG1 = 100; in assay [2], 38 SG1 = 100; in assay [3] it was 14 SG1 = 100; in assay [4], 18 SG1 = 100; in assay [5] it was 22 SG1 = 100.

B12: M103205H795-SG178/M103202L889-SK1 (antibody, human IgG1, kappa)
heavy: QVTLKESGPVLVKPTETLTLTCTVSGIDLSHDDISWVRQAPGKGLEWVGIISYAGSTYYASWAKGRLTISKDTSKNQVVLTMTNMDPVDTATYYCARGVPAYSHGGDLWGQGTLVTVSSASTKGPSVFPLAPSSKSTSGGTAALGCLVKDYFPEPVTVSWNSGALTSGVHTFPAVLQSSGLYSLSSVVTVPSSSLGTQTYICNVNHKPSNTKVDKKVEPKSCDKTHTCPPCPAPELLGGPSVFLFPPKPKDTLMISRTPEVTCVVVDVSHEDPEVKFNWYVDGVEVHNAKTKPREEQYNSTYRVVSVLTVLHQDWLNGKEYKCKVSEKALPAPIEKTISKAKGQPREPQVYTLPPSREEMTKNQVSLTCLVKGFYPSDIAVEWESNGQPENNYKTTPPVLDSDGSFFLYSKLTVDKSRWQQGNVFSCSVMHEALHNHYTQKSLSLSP
light: B2 light
notes: also called N325E
Take B12: the “amount of FcgR binding (SG1 = 100)” value in assay [1] turned out to be 36 SG1 = 100; in assay [2], 29 SG1 = 100; in assay [3] it was 21 SG1 = 100; in assay [4], 22 SG1 = 100; in assay [5] it was 26 SG1 = 100.

B13: M103205H795-SG168/M103202L889-SK1 (antibody, human IgG1, kappa)
heavy: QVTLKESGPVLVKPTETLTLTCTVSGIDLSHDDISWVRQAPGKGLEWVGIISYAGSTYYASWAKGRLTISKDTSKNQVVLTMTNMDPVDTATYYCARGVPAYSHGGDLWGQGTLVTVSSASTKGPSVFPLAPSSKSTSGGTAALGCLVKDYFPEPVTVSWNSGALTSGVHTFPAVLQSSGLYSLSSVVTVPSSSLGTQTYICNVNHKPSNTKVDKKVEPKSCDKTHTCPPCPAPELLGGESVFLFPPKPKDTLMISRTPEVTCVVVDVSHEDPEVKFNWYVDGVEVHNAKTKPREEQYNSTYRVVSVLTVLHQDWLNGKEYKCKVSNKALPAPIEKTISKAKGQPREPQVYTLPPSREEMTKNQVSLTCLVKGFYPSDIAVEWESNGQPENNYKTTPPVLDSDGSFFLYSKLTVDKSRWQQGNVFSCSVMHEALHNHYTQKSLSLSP
light: B2 light
notes: also called P238E
On to B13, for which the “amount of FcgR binding (SG1 = 100)” value in assay [1] amounted to 13 SG1 = 100; in assay [2], 30 SG1 = 100; in assay [3] it was 16 SG1 = 100; in assay [4], 21 SG1 = 100; in assay [5], 28 SG1 = 100.

These data come from patent publication US20200317768A1 (published 2020).
